± gives the standard deviation of the averaged measurements.
System: ATP
Test: switch fluorescence ratio, 500 uM ATP over buffer (Cy3 cluster intensity, sum of 5 cycles each) (fold (ratio)); higher = stronger signal-on switching upon ATP binding; sequences stand for … in TCGTCGGCAGCGTCAGATGTGTATAAGAGACAGTTTTTTTTTTTTTTTTTTTTTTTTT…TC
Conditions: aptamer strand: ATP DNA aptamer (quencher-CACCTGGGGGAGTATTGCGGAGGAAGG + anchor), 100 nM annealed; ATP concentration: 500 uM
Method in brief: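 Between each of five buffer/ATP cycles, the flow-cell was stripped with NaOH and re-annealed. Each cycle imaged Cy3-labelled switching-strand clusters, annealed to 100 nM quencher-labelled ATP aptamer on a modified Illumina MiSeq flow-cell, first in selection buffer and then after 15 min with 500 uM ATP at 22 °C. The fluorescence ratio is summed target-cycle over summed buffer-cycle Cy3 intensity per cluster, averaged per switch-domain sequence, with clusters outside 100-1000 RFU excluded.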
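Note: ATP exposure 15 min at 22 °C before imaging.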

For AGCCTCTATA, the switch fluorescence ratio was 1.012 ± 0.0066.
For AGCCTGCCCT, the switch fluorescence ratio was 1.067 ± 0.0053.
With AGCCTGGGGA the switch fluorescence ratio was 1.001 ± 0.0018.
For AGCCTGGTGG, the switch fluorescence ratio was 1.05 ± 0.013.
With AGCCTGTTTT the switch fluorescence ratio was 0.9861 ± 0.0011.
Sequence AGCCTTGGGA has a switch fluorescence ratio of 1 ± 0.024.
With AGCGAAAGGA the switch fluorescence ratio was 1.01 ± 0.023.
With AGCGAAATTT the switch fluorescence ratio was 1.04 ± 0.023.
AGCGACGGAG showed a switch fluorescence ratio of 0.966 ± 0.024.
Sequence AGCGAGAGGG has a switch fluorescence ratio of 0.974 ± 0.031.
AGCGAGGGGG gave a switch fluorescence ratio of 1.03 ± 0.032.
Work on AGCGAGTTGG yielded a switch fluorescence ratio of 0.958 ± 0.039.
With AGCGCCGGGG the switch fluorescence ratio was 1.03 ± 0.015.
Sequence AGCGCCTTTG has a switch fluorescence ratio of 0.9905 ± 0.0024.
AGCGCGCGGC was tested, and the switch fluorescence ratio was 0.998 ± 0.013.
With AGCGCGGGGG the switch fluorescence ratio was 1.002 ± 0.006.
With AGCGGAGTTT the switch fluorescence ratio was 0.984 ± 0.031.
Work on AGCGGATGTG yielded a switch fluorescence ratio of 0.978 ± 0.027.
Sequence AGCGGATTAA has a switch fluorescence ratio of 1.016 ± 0.0017.
AGCGGCACAC showed a switch fluorescence ratio of 1.073 ± 0.0095.
AGCGGCCCGG gave a switch fluorescence ratio of 1.02 ± 0.017.
AGCGGGGGCT was tested, and the switch fluorescence ratio was 0.997 ± 0.045.
Sequence AGCGGGTTAA has a switch fluorescence ratio of 1.017 ± 0.0096.
Work on AGCGGTAGGG yielded a switch fluorescence ratio of 1.022 ± 0.0082.
AGCGGTCGGC was tested, and the switch fluorescence ratio was 1.04 ± 0.018.
AGCGGTCTAT was tested, and the switch fluorescence ratio was 1.021 ± 0.005.
AGCGGTTCGC showed a switch fluorescence ratio of 0.9931 ± 0.0056.
Work on AGCGTCAGCC yielded a switch fluorescence ratio of 0.99 ± 0.05.
For AGCGTCAGTA, the switch fluorescence ratio was 0.999 ± 0.014.
In the case of AGCGTGTGTG, the switch fluorescence ratio is reported as 1.05 ± 0.059.
Sequence AGCGTTGATG has a switch fluorescence ratio of 1.01 ± 0.03.
With AGCGTTTGGG the switch fluorescence ratio was 1.0289 ± 0.001.
Sequence AGCTAATCGT has a switch fluorescence ratio of 1.01 ± 0.014.
AGCTACGGTG showed a switch fluorescence ratio of 1.044 ± 0.0052.
Sequence AGCTAGCGTT has a switch fluorescence ratio of 0.997 ± 0.024.
In the case of AGCTAGGGTC, the switch fluorescence ratio is reported as 1.05 ± 0.049.
For AGCTATTTGC, the switch fluorescence ratio was 0.983 ± 0.048.
Work on AGCTCATGTG yielded a switch fluorescence ratio of 0.988 ± 0.026.
AGCTCGGTCG was tested, and the switch fluorescence ratio was 0.963 ± 0.017.
Work on AGCTCTGACG yielded a switch fluorescence ratio of 1.02 ± 0.024.
AGCTCTGGCC was tested, and the switch fluorescence ratio was 0.961 ± 0.04.
In the case of AGCTGAAGAC, the switch fluorescence ratio is reported as 1.25 ± 0.097.
For AGCTGCAGTG, the switch fluorescence ratio was 1.02 ± 0.019.
For AGCTGGGCTC, the switch fluorescence ratio was 1.07 ± 0.016.
AGCTGGGTCC gave a switch fluorescence ratio of 1.04 ± 0.041.
Work on AGCTGGTCCG yielded a switch fluorescence ratio of 1.02 ± 0.022.
AGCTGTGAC showed a switch fluorescence ratio of 1.07 ± 0.04.
AGCTTAAGGG gave a switch fluorescence ratio of 0.967 ± 0.02.
Work on AGCTTATGGT yielded a switch fluorescence ratio of 0.962 ± 0.049.
For AGCTTCAGGG, the switch fluorescence ratio was 1.01 ± 0.037.

Source: the supplement of paper PMC10126150
